Results on 2 molecules are retold here after patent EP4793288A1 (Imbiologics Corp., dated 2025).

The target in one test is B2M (UniProt P61769 21-119). Nature of the test: ELISA. In general terms: An ELISA detects its analyte on a solid surface through an enzyme-linked reagent.
The target of test [1] is T1, HLA-G expressed on the cell surface (human, UniProt P17693 25-338). Nature of the test: cell-based or functional assay.
The target in test [2] is T1, HLA-G expressed on the cell surface. Put plainly: flow cytometry on JEG-3 and SCH cells naturally expressing HLA-G, anti-human IgG PE. A general note: In flow cytometry, cells or beads pass a laser one at a time.

Chain of B2M (P61769 21-119 limits assumed): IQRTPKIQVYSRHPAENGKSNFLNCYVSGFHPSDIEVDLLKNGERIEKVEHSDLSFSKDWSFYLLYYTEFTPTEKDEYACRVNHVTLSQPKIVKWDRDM

B1: 2F1HS6LS#46 (antibody, human IgG1, kappa, V domains shown)
VH: EVQLVESGGGLVQPGGSLRLSCAASGFTFSDYAMSWVRQAPGKGLEWVSRISQSGSYTYYADSVKGRFTISRDNSKNTLYLQMNSLRAEDTAVYYCAKEGTSSYRGWMDVWGQGTLVTVSS
VL: DIQMTQSPSSLSASVGDRVTITCRASQSISNWLNWYQQKPGKAPKLLIYATSRLQSGVPSRFSGSGSGTDFTLTISSLQPEDFATYYCQQSYSTPWTFGQGTKVEIKR
As for B1, the binding result in the test with B2M is on record as “no binding”. In addition, in test [1], the “EC50 (nM), ADCC reporter assay on SKOV-3/HLA-G cells” value came to 0.15 nM. Further, in test [2], the “fold HLA-G binding activity against the positive control antibody” value was ≥ 3 fold.

B2: 2F1HS6LS#38 (antibody, V domains shown)
VH: B1 VH
VL: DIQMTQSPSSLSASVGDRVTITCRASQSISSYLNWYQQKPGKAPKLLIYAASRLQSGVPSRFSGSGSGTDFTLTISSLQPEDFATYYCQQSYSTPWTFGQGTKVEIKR
For B2, the binding result in the test with B2M is “no binding”. The “EC50 (nM), ADCC reporter assay on SKOV-3/HLA-G cells” value in test [1] was found to be 0.93 nM. The “fold HLA-G binding activity against the positive control antibody” value in test [2] was ≥ 3 fold.
